Laboratory results published in article PMC3547798, “Binding of Nucleoid-Associated Protein Fis to DNA Is Regulated by DNA Breathing Dynamics”.

How the values were obtained:
[1] = target: T1, Fis (Escherichia coli DH5alpha, UniProt P0A6R3 1-98); test: EMSA; complex detectable at 0.25-0.50 uM Fis; salmon sperm DNA; 20 mM HEPES (pH not stated), 150 mM NaCl, 500 ug/mL BSA, 1 mM DTT, 0.1 mM EDTA, 0.5-1 ug/ul salmon sperm DNA, room temperature 30 min; DNA 100 nM or 500 nM-1 uM (Methods); 6% gel, 0.5x TBE; details: protein: recombinant; tags: N-terminal GST (pGEX-KG); label: 5'-biotin on forward strand; blunt
T1 sequence (P0A6R3 whole entry): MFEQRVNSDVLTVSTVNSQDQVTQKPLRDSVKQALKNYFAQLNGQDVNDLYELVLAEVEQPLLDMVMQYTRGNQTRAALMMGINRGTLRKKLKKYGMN

[2] = target: T1, Fis; test: EMSA; significant complex at 0.25 uM Fis, stronger than FIS2; salmon sperm DNA; 20 mM HEPES (pH not stated), 150 mM NaCl, 500 ug/mL BSA, 1 mM DTT, 0.1 mM EDTA, 0.5-1 ug/ul salmon sperm DNA, room temperature 30 min; DNA 100 nM or 500 nM-1 uM (Methods); 6% gel, 0.5x TBE; details: protein: recombinant; tags: N-terminal GST (pGEX-KG); label: 5'-biotin on forward strand; blunt

B1: FIS1 (dsDNA)
DNA 1: AAATTTGTTTGAATTTTGAGCAAATTT
DNA 2: AAATTTGCTCAAAATTCAAACAAATTT
[1]
  binding result: binds

B2: FIS2m2 (dsDNA)
DNA 1: AAATTTGTTTGGGCGCTGAGCAAATTT
DNA 2: AAATTTGCTCAGCGCCCAAACAAATTT
modifications: O6-methylguanine at nt 12 and 15 of strand 1 (positions -2, +1)
[2]
  binding result: binds
